In the supplement of paper PMC10567573:

B1: ZNF24 (parent)
chain: YGETCFPKGRFERKRNPSRKKQHI
B2: VPS39 (parent)
chain: QQVKCIITEEKVCMVCKKKIGNSA

Variants of: B1
Test: protein stability index of a GFP-peptide fusion (GPS, HEK-293T) (PSI 1-6); higher = more stable
Conditions: c terminus: a fixed tail appended
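Note: lentivirally expressed fusions sorted by FACS into six bins by GFP to DsRed ratio, PSI derived from sequencing read proportions per bin multiplied by bin number.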

Protein stability index, by site and new letter:
F11: V 2.59; D 2.99; T 3.28; M 2.55; L 2.35; A 3.43
K8: V 2.36; H 2.1; G 2.93; S 2.42
F6: R 3.7; V 3.82; Y 4.74; T 4.36; N 4.03; E 4.51; S 3.73
K20: V 2.66; I 2.63; A 3.31; W 1.99; E 2.77; T 2.44; R 2.34; Q 2.34; F 2.45
R15: K 2.03; G 2.75; P 3.15; V 2.83; S 2.79; A 2.76; Q 2.88; D 3.17
R19: D 2.95; H 3.22; A 3.07; L 2.06; N 2.86; Y 2.68; S 3.38
N16: R 2.63; V 1.94; Q 2.87
K21: V 2.2; M 2.08; E 3.1; R 2.85
C5: P 3.61; A 3.17; G 2.17; F 3.83; H 3.63; M 2.25
I24: F 2.71; Q 3.08; G 2.64
P7: S 2.28; C 2.81; Q 2.26; L 1.9; M 3.07; D 3.5
S18: H 2.34; G 3.53; L 3.16; T 2.72; N 3.87; D 3.07; Y 2.02
Y1: H 4.11; D 4.25; P 4.1; G 4.63; I 3.74; Q 3.96
E3: M 3.41; L 2.96; R 2.9; V 3.66; C 2.75; D 2.2; Y 2.37; N 1.95
H23: R 2.73; E 2.68; V 2.78; C 2.85; N 2.85; I 2.57
G2: K 3.21; W 3.17; A 2.34; D 4.33
R10: C 2.66; G 3.44; H 2.55; A 2.6
K14: C 2.41; I 2.96; T 2.27; L 2.82; V 2.42; E 3.65; A 3.21
G9: A 2.11; T 2.7; P 2.41; I 1.94; R 2.85; M 2.18
P17: C 2.37; K 2.5; G 2.97; S 2.62; H 3.04; W 2.52; A 2.56
E12: L 3.59; G 3.16; Q 2.3; I 2.34; A 2.49
R13: A 2.96; W 1.75; T 2.3; H 3.21
T4: K 2.13; F 2.1
Q22: P 2.59; G 2.95; M 2.61

Variants of: B2
Test: as above
Conditions: c terminus: a fixed tail appended

Protein stability index of substitutions, site by site:
Q1: L 2.62; Y 1.64; D 3.69; K 1.88; C 2.4; M 1.83; S 2.57; R 2.24; P 2.79; H 2.59; A 1.95; T 2.52; N 2.91; W 1.98; E 2.67; V 1.11; I 1.9; G 3.05; F 1.49
Q2: K 2.59; F 2.17; R 2.59; E 3.37; P 2.77; A 2.94; G 2.32; S 3.77; D 3.15; H 3.05; L 2.4; I 1.45; N 2.26; C 4.17; T 2.61; M 2.93
